The target in the data set is Factor X, P00742.

Experimental findings from patent US20210002624 are described below.

Factor X, P00742, sequence (P00742 whole entry, looked up): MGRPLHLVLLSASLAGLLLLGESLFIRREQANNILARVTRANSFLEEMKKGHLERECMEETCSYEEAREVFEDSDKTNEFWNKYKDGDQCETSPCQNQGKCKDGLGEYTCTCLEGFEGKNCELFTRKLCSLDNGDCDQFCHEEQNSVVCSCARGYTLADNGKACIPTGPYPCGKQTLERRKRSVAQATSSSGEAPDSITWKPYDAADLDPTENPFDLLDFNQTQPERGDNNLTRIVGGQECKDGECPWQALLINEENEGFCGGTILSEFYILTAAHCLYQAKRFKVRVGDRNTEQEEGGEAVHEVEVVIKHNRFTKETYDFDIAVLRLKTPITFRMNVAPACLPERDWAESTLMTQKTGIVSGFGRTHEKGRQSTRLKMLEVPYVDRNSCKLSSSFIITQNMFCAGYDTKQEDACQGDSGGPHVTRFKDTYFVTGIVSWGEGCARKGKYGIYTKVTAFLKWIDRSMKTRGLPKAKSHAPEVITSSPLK

B1: Desialylated wild-type Factor VII (dWT VIIa) (protein)
chain 1: ANAFLEELRPGSLERECKEEQCSFEEAREIFKDAERTKLFWISYSDGDQCASSPCQNGGSCKDQLQSYICFCLPAFEGRNCETHKDDQLICVNENGGCEQYCSDHTGTKRSCRCHEGYSLLADGVSCTPTVEYPCGKIPILEKRNASKPQGR
chain 2: IVGGKVCPKGECPWQVLLLVNGAQLCGGTLINTIWVVSAAHCFDKIKNWRNLIAVLGEHDLSEHDGDEQSRRVAQVIIPSTYVPGTTNHDIALLRLHQPVVLTDHVVPLCLPERTFSERTLAFVRFSLVSGWGQLLDRGATALELMVLNVPRLMTQDCLQQSRKVGDSPNITEYMFCAGYSDGSKDSCKGDSGGPHATHYRGTWYLTGIVSWGQGCATVGHFGVYTRVSQYIEWLQKLMRSEPRPGVLLRAPFP
For B1, the “activation of Factor X (Michaelis Menten kinetics; Factor X titrated in the presence of sTF-Factor VII complexes, 0.5 nM Factor VII, 125 nM sTF), relative to wild-type Factor VII (F7)” value is on record as “approximately 2-fold”.
